From patent US12517112B2, “Immune cell organoid co-cultures” (Koninklijke Nederlandse Akademie van Wetenschappen, priority 2017, dated 2026) come the findings set out here.

The test system of assay [1] is HLA-A2. In words: HLA-A2 expression on CRC organoid lines with and without IFN-γ stimulation (flow cytometry). The class given is cell-based. The following applies: HLA-A2 negative CRC organoids, 20 ng/ml recombinant human IFN-γ. On the procedure:
FIG. 10. HLA-A2 expression on clonally expanded HLA-A2^+ and HLA-A2^− CRC organoid lines. […] Flow cytometry analysis of HLA-A2 expression on normal (left panel), HLA-A2^+ CRC (middle panel) and HLA-A2^− CRC (right panel) lines with and without stimulation with 20 ng/ml recombinant human IFN-γ.
(§1) Cells were sorted as single cells into 96-well plates using a BD FACS Aria (BD Biosciences) cytometer. For flow cytometry, the following antibodies were used (all anti-human): CD8-PE (clone RPA-T8), CD45-PerCP-Cy5.5 (2D1), CD274 (PD-L1)-APC (MIH1) (all BD Biosciences), CD279 (PD-1)-PE (EH12.2H7, Biolegend), HLA-A2^− PE (BB7.2, Santa Cruz).

The subject of assay [2] is CD274 (PD-L1). In words: PD-L1 expression in colon organoid lines upon IFN-γ stimulation (qPCR and flow cytometry). The format is cell-based. As to conditions: organoids treated with 20 ng/mL recombinant human IFN-γ.
From the text: as §1
Background: Real-time PCR tracks product formation cycle by cycle.

B1: IFN-γ: recombinant human interferon gamma used to stimulate organoids (20 ng/mL) (protein, UniProt P01579 24-161, looked up)
Interferon gamma: QDPYVKEAENLKKYFNAGHSDVADNGTLFLGILKNWKEESDRKIMQSQIVSFYFKLFKNFKDDQSIQKSVETIKEDMNVKFFNSNKKKRDDFEKLTNYSVTDLNVQRKAIHELIQVMAELSPAAKTGKRKRSQMLFRG
Consider B1, for which, in assay [1], the HLA-A2 re-expression result is on record as “did not trigger HLA-A2 re-expression”. In addition, in assay [2], the “PD-L1 expression on transcript and protein level” value is on record as “dramatically upregulated”.
